Values quoted from earlier work, collected in article PMC10054347.

How the values were obtained:
[1] = target: Double homeobox protein 4 (human), full length (Homo sapiens (Human)) (UniProt Q9UBX2); assay: FP; details: hairpin with CCC bulge
[2] = target: Integrin alpha5 beta1 ectodomain (Homo sapiens (Human)) (UniProt P08648+P05556); assay: SPR; details: 2'-F pyrimidines; PBS 10 mM, 150 mM NaCl, 1 mM MgCl2, 0.005% P20, 25 C
[3] = target: T1, FGFR3b ectodomain, human (Homo sapiens (Human)) (UniProt P22607); assay: flow; details: 2'-F pyrimidines; 3'-inverted dT (not in strands); 5'-thiol; protein on protein G beads; DPBS / FACS buffer, 1 h, 37 C; apparent Kd
T1 sequence: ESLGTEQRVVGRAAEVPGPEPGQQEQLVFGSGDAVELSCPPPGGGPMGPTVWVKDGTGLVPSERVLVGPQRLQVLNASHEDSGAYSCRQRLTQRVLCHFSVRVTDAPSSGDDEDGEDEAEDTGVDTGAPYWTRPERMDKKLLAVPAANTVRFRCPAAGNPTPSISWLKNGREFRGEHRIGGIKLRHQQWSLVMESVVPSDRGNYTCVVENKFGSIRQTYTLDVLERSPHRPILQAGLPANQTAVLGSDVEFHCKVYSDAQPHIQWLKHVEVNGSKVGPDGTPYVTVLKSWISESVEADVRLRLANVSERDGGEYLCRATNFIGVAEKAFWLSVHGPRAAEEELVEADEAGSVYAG

[4] = target: T2, FGFR3c ectodomain, mouse (Mus musculus (Mouse)) (UniProt Q61851); assay: flow; details: 2'-F pyrimidines; 3'-inverted dT (not in strands); 5'-thiol; protein on protein G beads; DPBS / FACS buffer, 1 h, 37 C; apparent Kd
T2 sequence: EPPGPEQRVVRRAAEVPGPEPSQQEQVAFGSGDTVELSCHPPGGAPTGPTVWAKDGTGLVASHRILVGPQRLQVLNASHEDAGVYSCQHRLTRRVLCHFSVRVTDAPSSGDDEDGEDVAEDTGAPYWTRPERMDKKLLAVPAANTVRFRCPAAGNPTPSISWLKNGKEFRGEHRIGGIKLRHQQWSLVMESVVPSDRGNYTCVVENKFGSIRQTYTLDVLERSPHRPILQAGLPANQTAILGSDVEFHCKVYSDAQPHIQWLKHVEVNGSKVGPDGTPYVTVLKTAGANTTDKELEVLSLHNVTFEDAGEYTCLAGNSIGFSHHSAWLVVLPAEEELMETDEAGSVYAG

[5] = target: T3, NELF-E (Drosophila) (Drosophila melanogaster (Fruit fly)) (UniProt P92204); details: HiTS-RAP; 10 mM HEPES pH 7.5, 100 mM NaCl, 25 mM KCl, 5 mM MgCl2, 0.02% Tween-20, RT
T3 sequence: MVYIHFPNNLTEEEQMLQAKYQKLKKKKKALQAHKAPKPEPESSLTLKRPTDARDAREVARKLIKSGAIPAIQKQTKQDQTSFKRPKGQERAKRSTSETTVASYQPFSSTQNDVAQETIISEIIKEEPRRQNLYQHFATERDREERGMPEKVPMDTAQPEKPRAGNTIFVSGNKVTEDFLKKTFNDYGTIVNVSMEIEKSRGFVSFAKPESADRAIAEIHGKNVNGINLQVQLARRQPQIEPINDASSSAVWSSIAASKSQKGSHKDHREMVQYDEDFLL

[6] = target: T4, RNA-binding protein Hfq (YmaH) K2E (Bacillus subtilis (strain 168)) (UniProt O31796); assay: EMSA
T4 sequence: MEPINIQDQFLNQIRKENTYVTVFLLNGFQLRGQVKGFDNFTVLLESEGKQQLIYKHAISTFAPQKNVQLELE

[7] = target: Lactoferrin (bovine milk) (Bos taurus (Bovine)) (UniProt P24627); assay: SPR
Sequence of Lactoferrin (bovine milk) (Bos taurus (Bovine)) (P24627 20-708): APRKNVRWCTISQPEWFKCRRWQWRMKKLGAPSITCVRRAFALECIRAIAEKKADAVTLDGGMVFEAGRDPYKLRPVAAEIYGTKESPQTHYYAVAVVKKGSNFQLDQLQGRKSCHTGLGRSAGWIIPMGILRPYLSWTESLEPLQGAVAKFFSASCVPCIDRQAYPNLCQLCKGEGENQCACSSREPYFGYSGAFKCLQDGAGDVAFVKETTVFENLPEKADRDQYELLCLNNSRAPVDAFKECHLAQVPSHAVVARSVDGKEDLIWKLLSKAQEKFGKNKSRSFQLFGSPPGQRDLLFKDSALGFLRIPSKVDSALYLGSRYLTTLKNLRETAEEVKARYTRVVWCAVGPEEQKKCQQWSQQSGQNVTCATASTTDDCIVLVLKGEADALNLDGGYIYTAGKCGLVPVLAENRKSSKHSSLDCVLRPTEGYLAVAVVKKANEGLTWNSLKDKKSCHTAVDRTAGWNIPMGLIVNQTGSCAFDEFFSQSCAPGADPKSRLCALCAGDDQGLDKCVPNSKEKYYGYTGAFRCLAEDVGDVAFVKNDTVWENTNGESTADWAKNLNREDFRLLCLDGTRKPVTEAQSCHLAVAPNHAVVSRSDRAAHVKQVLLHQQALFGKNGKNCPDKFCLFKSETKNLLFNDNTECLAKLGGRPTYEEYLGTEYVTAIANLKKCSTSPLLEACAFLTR

[8] = target: alpha-thrombin (light + heavy chain) (Homo sapiens (Human)) (UniProt P00734+P00734); assay: SPR; details: 2'-F pyrimidines; 10 mM HEPES-KOH pH 7.5, 100 mM KCl; protein amine-coupled on CM5, BSA reference
[9] = target: MMP14 (MT1-MMP) (Homo sapiens (Human)) (UniProt P50281); assay: flow; details: 293T-MMP14 cells; PBS, 10% FCS, 0.02% NaN3, 37 C, 30 min
[10] = target: T5, Aspartyl/asparaginyl beta-hydroxylase, human (Homo sapiens (Human)) (UniProt Q12797); assay: flow; details: HeLa-ASPH cells; DPBS, 5 mM MgCl2, glucose, BSA, tRNA
T5 sequence: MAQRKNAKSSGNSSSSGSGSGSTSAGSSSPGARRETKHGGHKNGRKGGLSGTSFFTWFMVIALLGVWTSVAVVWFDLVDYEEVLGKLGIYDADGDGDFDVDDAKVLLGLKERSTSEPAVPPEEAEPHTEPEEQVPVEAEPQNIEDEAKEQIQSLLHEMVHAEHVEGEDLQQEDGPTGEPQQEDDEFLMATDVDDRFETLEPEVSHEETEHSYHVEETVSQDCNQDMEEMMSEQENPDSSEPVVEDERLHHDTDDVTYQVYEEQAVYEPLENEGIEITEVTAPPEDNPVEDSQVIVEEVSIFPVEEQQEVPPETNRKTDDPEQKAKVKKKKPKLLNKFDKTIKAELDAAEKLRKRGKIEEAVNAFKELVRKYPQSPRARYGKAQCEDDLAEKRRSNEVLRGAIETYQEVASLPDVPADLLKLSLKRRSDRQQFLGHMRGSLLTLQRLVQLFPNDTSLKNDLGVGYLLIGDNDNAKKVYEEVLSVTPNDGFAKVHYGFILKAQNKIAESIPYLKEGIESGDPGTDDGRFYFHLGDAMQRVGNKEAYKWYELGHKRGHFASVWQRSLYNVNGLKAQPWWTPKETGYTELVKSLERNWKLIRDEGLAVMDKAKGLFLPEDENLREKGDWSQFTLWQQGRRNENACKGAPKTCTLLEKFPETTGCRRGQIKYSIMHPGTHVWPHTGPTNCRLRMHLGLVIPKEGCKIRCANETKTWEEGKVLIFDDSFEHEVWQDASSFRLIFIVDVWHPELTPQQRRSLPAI

[11] = target: CD63 large extracellular loop (Homo sapiens (Human)) (UniProt P08962); assay: ELONA; details: binding buffer, 37 C, 1 h; protein adsorbed on plate
Sequence of CD63 large extracellular loop (Homo sapiens (Human)) (P08962 103-203): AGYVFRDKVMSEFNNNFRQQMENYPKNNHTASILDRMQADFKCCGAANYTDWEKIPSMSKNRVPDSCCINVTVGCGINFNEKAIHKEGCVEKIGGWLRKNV

[12] = target: TGF-beta1 (mature) (Homo sapiens (Human)) (UniProt P01137); assay: SPR; details: 2'-F pyrimidines; 10 mM HEPES-KOH pH 7.5, 100 mM KCl; protein amine-coupled on CM5, BSA reference
Sequence of TGF-beta1 (mature) (Homo sapiens (Human)) (P01137 279-390): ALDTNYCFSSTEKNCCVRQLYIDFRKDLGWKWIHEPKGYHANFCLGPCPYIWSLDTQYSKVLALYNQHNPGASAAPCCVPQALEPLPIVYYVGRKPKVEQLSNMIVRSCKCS

[13] = target: T6, SIRT1, human (Homo sapiens (Human)) (UniProt Q96EB6); assay: SPR; details: circular (ligated 40-mer, ESI Fig 4); 100 mM NaCl, 5 mM MgCl2, pH 7.4, 25 C
T6 sequence: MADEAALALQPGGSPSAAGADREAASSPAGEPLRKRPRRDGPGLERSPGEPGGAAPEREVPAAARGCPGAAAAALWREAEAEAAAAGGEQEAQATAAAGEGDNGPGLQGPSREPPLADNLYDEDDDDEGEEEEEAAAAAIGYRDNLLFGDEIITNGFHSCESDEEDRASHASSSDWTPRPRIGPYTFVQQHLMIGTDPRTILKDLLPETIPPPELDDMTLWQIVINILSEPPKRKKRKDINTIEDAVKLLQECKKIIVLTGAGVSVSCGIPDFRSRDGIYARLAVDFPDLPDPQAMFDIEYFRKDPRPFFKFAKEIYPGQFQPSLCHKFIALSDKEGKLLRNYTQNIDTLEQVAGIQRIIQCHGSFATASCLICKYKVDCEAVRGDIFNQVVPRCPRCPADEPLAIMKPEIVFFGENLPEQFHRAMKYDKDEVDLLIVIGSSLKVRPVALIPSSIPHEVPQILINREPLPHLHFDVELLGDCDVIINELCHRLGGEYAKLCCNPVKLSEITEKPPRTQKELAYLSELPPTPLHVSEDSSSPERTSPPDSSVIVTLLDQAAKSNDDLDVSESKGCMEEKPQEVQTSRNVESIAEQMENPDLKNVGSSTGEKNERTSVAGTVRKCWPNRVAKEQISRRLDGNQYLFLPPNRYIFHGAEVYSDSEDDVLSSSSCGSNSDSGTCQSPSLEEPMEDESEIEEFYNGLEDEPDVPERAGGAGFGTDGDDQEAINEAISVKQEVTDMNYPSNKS

[14] = target: T7, Epithelial cell adhesion molecule (EpCAM) (Homo sapiens (Human)) (UniProt P16422); assay: flow; details: DPBS, 4.5 g/L glucose, 5 mM MgCl2, 10% FBS, 37 C; HepG2 cells overexpressing EpCAM
T7 sequence: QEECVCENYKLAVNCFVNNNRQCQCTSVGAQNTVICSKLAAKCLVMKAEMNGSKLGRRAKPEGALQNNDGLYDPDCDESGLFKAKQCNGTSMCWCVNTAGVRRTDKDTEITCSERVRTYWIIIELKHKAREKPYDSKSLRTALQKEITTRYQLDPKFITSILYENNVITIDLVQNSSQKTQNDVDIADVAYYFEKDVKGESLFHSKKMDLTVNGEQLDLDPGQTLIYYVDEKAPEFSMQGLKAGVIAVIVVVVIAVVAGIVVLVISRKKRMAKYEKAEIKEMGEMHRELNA

[15] = target: PD-L1 (human) (Homo sapiens (Human)) (UniProt Q9NZQ7); assay: flow; details: MDA-MB-231 PD-L1 over-expressing cells, 4 C, 1 h
Sequence of PD-L1 (human) (Homo sapiens (Human)) (Q9NZQ7 19-290): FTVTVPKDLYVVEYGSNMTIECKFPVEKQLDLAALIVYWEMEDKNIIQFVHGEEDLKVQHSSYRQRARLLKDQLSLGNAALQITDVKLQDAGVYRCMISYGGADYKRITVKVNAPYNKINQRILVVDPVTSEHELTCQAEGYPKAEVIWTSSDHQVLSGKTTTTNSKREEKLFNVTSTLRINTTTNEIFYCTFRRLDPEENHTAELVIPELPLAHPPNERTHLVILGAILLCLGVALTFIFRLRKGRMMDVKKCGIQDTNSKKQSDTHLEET

[16] = target: T8, C5a anaphylatoxin (human) (Homo sapiens (Human)) (UniProt P01031); assay: SPR; details: all L-RNA (Spiegelmer); 5' 40 kDa branched PEG via aminohexyl linker
T8 sequence: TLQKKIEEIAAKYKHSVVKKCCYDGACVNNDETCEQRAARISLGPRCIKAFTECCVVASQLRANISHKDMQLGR

[17] = target: T9, C5a anaphylatoxin (mouse) (Mus musculus (Mouse)) (UniProt P06684); assay: SPR; details: all L-RNA (Spiegelmer); 5' 40 kDa branched PEG via aminohexyl linker
T9 sequence: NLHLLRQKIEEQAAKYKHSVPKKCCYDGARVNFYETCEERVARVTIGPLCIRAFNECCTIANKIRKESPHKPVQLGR

[18] = target: PDGFR-alpha ectodomain (human) (Homo sapiens (Human)) (UniProt P16234); assay: SPR; details: 2'-F pyrimidines; 30 mM Tris-HCl pH 7.5, 150 mM NaCl, 5 mM MgCl2; aptamer on SA chip
Sequence of PDGFR-alpha ectodomain (human) (Homo sapiens (Human)) (P16234 24-524): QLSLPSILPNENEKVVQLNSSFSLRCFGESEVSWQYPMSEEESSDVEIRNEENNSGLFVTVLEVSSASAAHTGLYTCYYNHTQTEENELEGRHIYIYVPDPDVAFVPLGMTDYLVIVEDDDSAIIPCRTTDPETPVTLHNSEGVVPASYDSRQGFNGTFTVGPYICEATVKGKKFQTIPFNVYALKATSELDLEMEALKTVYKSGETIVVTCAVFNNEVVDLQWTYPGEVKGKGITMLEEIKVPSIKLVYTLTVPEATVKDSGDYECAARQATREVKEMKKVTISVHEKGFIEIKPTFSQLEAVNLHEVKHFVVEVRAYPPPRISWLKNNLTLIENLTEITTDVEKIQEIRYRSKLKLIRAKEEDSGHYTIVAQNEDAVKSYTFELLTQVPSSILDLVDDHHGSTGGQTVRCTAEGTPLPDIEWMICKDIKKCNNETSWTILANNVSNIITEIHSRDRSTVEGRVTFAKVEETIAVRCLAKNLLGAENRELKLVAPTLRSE

Sequence of Double homeobox protein 4 (human), full length (Homo sapiens (Human)) (Q9UBX2 whole entry, the tested form may be a part): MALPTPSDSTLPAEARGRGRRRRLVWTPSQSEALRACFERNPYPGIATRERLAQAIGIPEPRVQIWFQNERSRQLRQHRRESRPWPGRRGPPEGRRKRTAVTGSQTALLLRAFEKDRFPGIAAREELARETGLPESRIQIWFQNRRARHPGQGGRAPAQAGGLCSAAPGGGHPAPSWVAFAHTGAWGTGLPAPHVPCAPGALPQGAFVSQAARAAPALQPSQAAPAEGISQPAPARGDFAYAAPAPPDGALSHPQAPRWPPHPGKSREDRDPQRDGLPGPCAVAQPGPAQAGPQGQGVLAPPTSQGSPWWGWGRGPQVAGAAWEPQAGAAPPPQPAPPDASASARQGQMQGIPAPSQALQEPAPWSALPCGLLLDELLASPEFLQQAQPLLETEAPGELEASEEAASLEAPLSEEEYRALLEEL
Sequence of Integrin alpha5 beta1 ectodomain (Homo sapiens (Human)) (P08648 42-995, chain 1 of 2): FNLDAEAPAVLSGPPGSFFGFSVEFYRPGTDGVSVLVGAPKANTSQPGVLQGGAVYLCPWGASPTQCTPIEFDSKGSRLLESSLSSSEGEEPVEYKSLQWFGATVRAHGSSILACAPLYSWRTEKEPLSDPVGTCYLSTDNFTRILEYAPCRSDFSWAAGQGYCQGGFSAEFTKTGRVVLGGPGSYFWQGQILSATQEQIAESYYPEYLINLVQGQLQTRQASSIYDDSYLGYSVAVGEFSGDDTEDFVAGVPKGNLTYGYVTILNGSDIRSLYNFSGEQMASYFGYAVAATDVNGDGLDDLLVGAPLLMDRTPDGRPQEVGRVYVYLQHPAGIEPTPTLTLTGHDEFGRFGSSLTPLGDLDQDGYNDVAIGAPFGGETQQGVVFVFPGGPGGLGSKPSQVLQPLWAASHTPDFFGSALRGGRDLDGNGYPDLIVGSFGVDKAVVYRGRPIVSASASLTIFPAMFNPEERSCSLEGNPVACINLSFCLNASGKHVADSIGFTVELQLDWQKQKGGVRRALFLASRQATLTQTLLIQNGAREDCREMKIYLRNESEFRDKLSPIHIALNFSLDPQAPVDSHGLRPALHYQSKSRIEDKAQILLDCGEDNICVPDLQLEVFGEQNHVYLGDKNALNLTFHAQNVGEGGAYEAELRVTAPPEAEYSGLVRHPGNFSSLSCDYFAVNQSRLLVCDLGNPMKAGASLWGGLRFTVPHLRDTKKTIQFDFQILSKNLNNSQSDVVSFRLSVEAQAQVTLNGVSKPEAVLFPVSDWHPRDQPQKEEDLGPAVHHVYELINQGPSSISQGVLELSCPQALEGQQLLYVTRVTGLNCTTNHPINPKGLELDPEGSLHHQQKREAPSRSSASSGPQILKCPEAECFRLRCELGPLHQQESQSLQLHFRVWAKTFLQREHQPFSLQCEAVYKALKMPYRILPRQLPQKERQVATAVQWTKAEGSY
Sequence of Integrin alpha5 beta1 ectodomain (Homo sapiens (Human)) (P05556 21-728, chain 2 of 2): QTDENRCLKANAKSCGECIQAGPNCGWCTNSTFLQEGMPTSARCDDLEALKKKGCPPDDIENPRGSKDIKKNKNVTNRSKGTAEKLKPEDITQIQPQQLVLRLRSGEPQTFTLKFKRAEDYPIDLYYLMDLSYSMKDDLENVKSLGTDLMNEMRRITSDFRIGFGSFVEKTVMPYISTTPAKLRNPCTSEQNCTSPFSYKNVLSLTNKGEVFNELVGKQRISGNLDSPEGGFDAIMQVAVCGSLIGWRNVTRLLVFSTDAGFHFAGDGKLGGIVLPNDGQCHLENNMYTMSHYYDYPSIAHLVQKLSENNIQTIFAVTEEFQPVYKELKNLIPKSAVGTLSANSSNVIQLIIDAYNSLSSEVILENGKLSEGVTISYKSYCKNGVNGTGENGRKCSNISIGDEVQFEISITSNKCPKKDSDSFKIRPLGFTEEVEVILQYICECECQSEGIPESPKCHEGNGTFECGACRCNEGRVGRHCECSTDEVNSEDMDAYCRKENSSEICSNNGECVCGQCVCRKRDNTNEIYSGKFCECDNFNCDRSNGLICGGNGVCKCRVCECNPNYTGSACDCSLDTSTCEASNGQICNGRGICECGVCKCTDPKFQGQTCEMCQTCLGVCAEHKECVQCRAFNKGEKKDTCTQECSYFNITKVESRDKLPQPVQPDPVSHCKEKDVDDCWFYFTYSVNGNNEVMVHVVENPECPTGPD

## AGCTAACTTAATCAACCGCAGGTTGATTAACCCGTTAGC [DUX4_CTT_R7CCC]
[1]
  Kd: 20 nM

## GGUUACCAGCCUUCACUGCGGACGGACAGAGAGUGCAACCUGCCGUGCCGCACCACGGUCGGUCACAC [H02-2'F]
[2]
  Kd: 72 nM

## GCCGAUGGUUUUGUGGCCGUUUGAGGUUCCUACGGC [iR3]
[3]
  Kd: 48 nM
[4]
  Kd: 36.6 nM

## GGGAAUGGAUCCACAUCUACGAAUUCCCAACGACUGCCGAGCGAGAUUACGCUUGAGCGCCCCACUGAGGAUGCCCACGGGCGAUUGGGGCACGGCUUCACUGCAGACUUGACGAAGCUU [NELFapt (full length)]
[5]
  Kd: 5.2 nM

## GGGACACAAUGGACGUAGAGAGAGAUUAGAUCCUGUCCGCGGCUAUAACGGCCGACAUGAGAG [m49f]
[6]
  Kd: 10 nM

## GCAGGACACCGTAACACGGGCTGATGCTCTCTTTATTTTACCTAAATAAAGTGTCCTGC [YFL-4 (Lac-A1), truncated 59-mer]
[7]
  Kd: 0.953 nM

## CCUUUGGUUCGGAUAAUUAUUAAGUAUUGUCUUCAUUCA [Tbn#3]
[8]
  Kd: 1.4 nM

## AGGGCCCGACGTGACGGCACGTCGGATATCTCATGCGTGT [M17]
[9]
  Kd: 4.98 nM

## ATACCAGCTTATTCAATTCGGGACAAGACAACGAACGAACAGGAAGAGAACCGGAATGCAGACGTCAGGGAGATAGTAAGTGCAATCT [AP-Cell 1]
[10]
  Kd: 47.5 nM

## GCTGGACTCACCTCGACCAGAGCCATTGGGTTTCCTAGGAAATAGGGCCTTTACTATGAGCGAGCCTGGCG [LL4A]
[11]
  Kd: 84.6 nM

## UGGUAAUUUGUCGUUUAUACGGGUCCUCGCAUCUUCCUA [TGF#2 (probable)]
[12]
  Kd: 10 nM

## CGAGTGGGTTACATCGAAACTGGATCTCAACAGCGGTAAC [AC3 (C3)]
[13]
  Kd: 0.27 nM

## AACAGAGGGACAAACGGGGGAAGATTTGACGTCGACGACA [EP166]
[14]
  Kd: 5480 nM

## ACCGACCGTGCTGGACTCATCTCGCTTTTTTCACGGTCCACACTACTATGAGCGAGCCTGGCG [XQ-P3]
[15]
  Kd: 15.4 nM

## GCCUGAUGUGGUGGUGAAGGGUUGUUGGGUGUCGACGCACAGGC [NOX-D19]
[16]
  Kd: 1.39 nM
[17]
  Kd: 0.051 nM

## GGGAGAGCGGAAGCGUGCUGGGCCUGCUCUUUAAUAAACCCACUUUCGAACAUCAGCGUAUGUCCAUAACCCAGAGGUGAUGGAUCCCCC [PDR3]
[18]
  Kd: 0.25 nM
